Assay results from paper PMC4777856, “Structural Basis of Stereospecificity in the Bacterial Enzymatic Cleavage of β-Aryl Ether Bonds in Lignin” (The Journal of Biological Chemistry, 2015).

B1: LigF (Sphingobium sp. SYK-6) (protein)
chain: MTLKLYSFGPGANSLKPLATLYEKGLEFEQVFVDPSKFEQHSDWFKKINPRGQVPALWHDGKVVTESTVICEYLEDVFPESGNSLRPADPFKRAEMRVWTKWVDEYFCWCVSTIGWAFGIKAIAQKMSDEEFEEHINKNVPIPEQQLKWRRARNGFPQEMLDEEFRKVGVSVARLEETLSKQDYLVDTGYSLADICNFAIANGLQRPGGFFGDYVNQEKTPGLCAWLDRINARPAIKEMFEKSKREDLLKRQNEKVA
notes: full-length wild type LigF (254 residues), vector pVP102KSSLigF; dimer
B2: LigE (Sphingobium sp. SYK-6) (protein)
chain: MARNNTITLYDLQLESGCTISPYVWRTKYALKHKGFDIDIVPGGFTGILERTGGRSERVPVIVDDGEWVLDSWVIAEYLDEKYPDRPMLFEGPTQKNLMKFLDNWLWSTAVGPWFRCYILDYHDLSLPQDRDYVRWSREQWFLGGQRLEDVQAGREDRLPLVPPTLEPFRRILAETKWLGGDQPNFADYSALAVFLWTASVARTPPLTEDDPLRDWLDRGFDLFDGLGRHPGMNPLFGLKLREGDPEPFVRQTGPAGAGGQALNKGPQTTKMPPRVAEKAD
notes: full-length LigE (282 residues), E. coli, synthesized gene in pCPD, C-terminal CPD-His tag cleaved off after a leucine; dimer

What was measured:
purified protein [1] = substrate: COc1ccc(C(=O)[C@H](CO)Oc2ccc(C=O)cc2OC)cc1OC; test: purified protein; type: biochemical, Sphingobium sp. SYK-6; details: 5 mM GSH, 25 mM Tris, 2.5% DMSO, pH 8.0, 30 °C
purified protein [2] = substrate: COc1ccc(C(=O)[C@@H](CO)Oc2ccc(C=O)cc2OC)cc1OC; test: purified protein; type: biochemical, Sphingobium sp. SYK-6; details: 5 mM GSH, 25 mM Tris, 2.5% DMSO, pH 8.0, 30 °C

Protein	Km (purified protein [1])	Vmax (purified protein [1])	kcat (purified protein [1])	kcat/Km (purified protein [1])	Km (purified protein [2])	Vmax (purified protein [2])	kcat (purified protein [2])	kcat/Km (purified protein [2])
B1	269 ± 1 µM	63.8 µmol/min/mg	31.9 ± 0.1 s⁻¹	118400 ± 1100 M⁻¹ s⁻¹				
B2					554 ± 16 µM	59.7 µmol/min/mg	31.9 ± 0.6 s⁻¹	57600 ± 4800 M⁻¹ s⁻¹
